In PMC7440162 (Cell, 2020):

What was measured:
PTPRD ECD-Fc = target: T1, PTPRD ECD-Fc (human, UniProt P23468 21-1265); experiment: ELISA
T1 sequence: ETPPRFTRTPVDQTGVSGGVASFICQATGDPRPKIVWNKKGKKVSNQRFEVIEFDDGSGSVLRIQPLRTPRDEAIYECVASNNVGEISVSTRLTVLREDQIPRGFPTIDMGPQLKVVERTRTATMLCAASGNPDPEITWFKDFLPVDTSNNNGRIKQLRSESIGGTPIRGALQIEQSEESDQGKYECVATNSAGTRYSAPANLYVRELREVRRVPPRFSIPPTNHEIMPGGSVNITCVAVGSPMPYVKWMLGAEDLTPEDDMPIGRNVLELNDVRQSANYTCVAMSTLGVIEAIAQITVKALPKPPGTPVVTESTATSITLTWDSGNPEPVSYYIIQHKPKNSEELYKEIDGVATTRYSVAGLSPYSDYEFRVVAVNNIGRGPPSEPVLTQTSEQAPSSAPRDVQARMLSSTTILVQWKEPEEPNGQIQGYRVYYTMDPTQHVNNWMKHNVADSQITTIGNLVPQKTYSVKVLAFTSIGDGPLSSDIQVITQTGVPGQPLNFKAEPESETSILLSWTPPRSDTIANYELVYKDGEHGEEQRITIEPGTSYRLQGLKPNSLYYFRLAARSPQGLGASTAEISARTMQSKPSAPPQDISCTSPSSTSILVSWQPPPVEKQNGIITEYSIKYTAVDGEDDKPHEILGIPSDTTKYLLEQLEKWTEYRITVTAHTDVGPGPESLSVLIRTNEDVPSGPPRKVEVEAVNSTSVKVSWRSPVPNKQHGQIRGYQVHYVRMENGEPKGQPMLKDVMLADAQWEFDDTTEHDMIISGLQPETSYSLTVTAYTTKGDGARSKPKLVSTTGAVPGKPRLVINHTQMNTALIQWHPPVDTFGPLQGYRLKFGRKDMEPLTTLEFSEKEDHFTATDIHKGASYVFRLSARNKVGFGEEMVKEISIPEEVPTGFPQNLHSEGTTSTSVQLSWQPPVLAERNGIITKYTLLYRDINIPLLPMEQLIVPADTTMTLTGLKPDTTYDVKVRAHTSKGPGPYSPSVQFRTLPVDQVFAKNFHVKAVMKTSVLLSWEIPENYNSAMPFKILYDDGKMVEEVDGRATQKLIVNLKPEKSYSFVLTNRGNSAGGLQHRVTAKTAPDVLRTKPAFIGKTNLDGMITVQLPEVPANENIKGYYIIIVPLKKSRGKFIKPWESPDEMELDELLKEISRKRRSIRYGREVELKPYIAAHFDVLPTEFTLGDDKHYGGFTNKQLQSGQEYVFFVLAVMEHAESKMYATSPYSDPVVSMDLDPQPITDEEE

PTPRS ECD-Fc = target: T2, PTPRS ECD-Fc (human, UniProt Q13332 30-1282); experiment: SPR
T2 sequence: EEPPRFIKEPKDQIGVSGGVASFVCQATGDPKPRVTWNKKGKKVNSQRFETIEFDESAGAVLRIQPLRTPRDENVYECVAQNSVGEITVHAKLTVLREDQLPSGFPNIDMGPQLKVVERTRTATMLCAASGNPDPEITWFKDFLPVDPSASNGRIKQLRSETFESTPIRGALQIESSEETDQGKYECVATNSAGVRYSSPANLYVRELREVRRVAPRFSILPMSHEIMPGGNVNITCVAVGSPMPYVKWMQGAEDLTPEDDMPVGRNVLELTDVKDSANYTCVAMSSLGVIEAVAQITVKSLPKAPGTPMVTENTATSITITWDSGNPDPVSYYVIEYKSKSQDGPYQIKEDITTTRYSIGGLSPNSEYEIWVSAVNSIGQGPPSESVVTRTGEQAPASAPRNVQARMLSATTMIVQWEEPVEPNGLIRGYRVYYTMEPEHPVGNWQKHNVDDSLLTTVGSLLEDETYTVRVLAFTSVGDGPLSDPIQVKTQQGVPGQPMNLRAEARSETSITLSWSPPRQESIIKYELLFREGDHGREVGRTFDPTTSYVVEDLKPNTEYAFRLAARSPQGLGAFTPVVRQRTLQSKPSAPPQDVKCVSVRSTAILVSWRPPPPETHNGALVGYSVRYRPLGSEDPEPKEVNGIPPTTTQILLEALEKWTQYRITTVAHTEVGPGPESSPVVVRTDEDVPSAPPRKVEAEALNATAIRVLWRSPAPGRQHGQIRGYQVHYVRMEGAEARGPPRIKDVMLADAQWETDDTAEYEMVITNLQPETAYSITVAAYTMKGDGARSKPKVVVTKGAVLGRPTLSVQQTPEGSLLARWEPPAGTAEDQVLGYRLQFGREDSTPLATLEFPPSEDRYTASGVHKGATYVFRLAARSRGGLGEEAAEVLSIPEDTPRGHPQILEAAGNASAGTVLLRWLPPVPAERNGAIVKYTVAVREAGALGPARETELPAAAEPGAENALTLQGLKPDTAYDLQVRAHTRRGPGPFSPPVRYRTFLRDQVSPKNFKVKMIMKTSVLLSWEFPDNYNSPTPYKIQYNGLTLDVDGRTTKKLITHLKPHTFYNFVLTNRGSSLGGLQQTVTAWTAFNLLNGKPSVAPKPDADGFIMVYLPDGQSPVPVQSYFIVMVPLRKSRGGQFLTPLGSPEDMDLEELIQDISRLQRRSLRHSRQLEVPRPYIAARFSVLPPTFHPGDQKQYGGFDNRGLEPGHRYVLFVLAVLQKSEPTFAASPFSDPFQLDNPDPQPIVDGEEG

PTPRF ECD-Fc = target: T3, PTPRF ECD-Fc (human, UniProt P10586 30-1263); experiment: SPR
T3 sequence: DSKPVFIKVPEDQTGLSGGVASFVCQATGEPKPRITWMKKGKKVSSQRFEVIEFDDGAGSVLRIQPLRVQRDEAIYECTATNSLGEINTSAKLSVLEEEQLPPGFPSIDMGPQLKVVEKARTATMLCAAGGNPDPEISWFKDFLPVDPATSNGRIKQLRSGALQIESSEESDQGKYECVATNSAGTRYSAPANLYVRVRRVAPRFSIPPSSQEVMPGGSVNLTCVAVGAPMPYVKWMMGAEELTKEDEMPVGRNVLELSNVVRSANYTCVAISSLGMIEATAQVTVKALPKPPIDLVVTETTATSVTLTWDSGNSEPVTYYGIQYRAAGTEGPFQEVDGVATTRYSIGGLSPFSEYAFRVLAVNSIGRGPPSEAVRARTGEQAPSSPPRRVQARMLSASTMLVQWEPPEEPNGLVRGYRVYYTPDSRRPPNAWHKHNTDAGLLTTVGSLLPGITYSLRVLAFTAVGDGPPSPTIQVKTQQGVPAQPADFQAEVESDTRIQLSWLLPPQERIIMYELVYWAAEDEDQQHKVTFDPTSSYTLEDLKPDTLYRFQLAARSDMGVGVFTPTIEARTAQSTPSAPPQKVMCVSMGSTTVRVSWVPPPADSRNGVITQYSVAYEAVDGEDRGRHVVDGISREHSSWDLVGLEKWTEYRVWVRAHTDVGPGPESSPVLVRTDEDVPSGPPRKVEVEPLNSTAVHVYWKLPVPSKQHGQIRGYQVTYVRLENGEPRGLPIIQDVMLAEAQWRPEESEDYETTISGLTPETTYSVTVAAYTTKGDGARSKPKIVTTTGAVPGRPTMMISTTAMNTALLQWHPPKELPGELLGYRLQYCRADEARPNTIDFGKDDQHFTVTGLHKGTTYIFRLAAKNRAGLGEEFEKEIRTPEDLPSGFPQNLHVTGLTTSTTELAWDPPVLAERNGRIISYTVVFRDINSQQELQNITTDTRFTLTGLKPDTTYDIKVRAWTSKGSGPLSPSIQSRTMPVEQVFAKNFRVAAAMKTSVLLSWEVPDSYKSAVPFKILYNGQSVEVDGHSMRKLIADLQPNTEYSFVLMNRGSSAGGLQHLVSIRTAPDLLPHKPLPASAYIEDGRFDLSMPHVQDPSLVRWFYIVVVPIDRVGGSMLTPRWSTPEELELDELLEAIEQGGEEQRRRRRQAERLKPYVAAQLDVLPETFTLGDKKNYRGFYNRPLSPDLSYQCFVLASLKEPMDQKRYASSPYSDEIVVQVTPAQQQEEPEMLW

- binding result (PTPRD ECD-Fc): binds
- binding result (PTPRS ECD-Fc): binds
- binding result (PTPRF ECD-Fc): binds
B1: SALM2 ECD-Fc (Fc fusion)
chain: QPCPGRCICQNVAPTLTMLCAKTGLLFVPPAIDRRVVELRLTDNFIAAVRRRDFANMTSLVHLTLSRNTIGQVAAGAFADLRALRALHLDSNRLAEVRGDQLRGLGNLRHLILGNNQIRRVESAAFDAFLSTVEDLDLSYNNLEALPWEAVGQMVNLNTLTLDHNLIDHIAEGTFVQLHKLVRLDMTSNRLHKLPPDGLFLRSQGTGPKPPTPLTVSFGGNPLHCNCELLWLRRLTREDDLETCATPEHLTDRYFWSIPEEEFLCEPPLITRQAGGRALVVEGQAVSLRCRAVGDPEPVVHWVAPDGRLLGNSSRTRVRGDGTLDVTITTLRDSGTFTCIASNAAGEATAPVEVCVVPLPLMAPPPAAPPPLTEPGSSDIATPGRPGANDSAAERRLVAAELTSNSVLIRWPAQRPVPGIRMYQVQYNSSVDDSLVYRMIPSTSQTFLVNDLAAGRAYDLCVLAVYDDGATALPATRVVGCVQFTTAGDPAPCRPLRAHFLGGTM
modifications: biotin on the AviTag (as SPR ligand)
